Data as given in patent US20060148683A1, “Detection and treatment of intravascular lesions” (priority 2001, published 2006).

Test system: thrombus
Assay: Treatment of a thrombus in guinea pig inferior vena cava monitored by catheter fluorescence detection
Type: in vivo
Conditions: guinea pig IVC thrombus; tPA delivered through the catheter after optical agent 0.02 μmol/kg
Description: A guinea pig (Harley, male) is anaesthetized. […] The vessel is allowed to recover for 10 mins. A 1 cm portion of the IVC is clamped and human thrombin (50 μL, 4 units) is injected into the vessel to promote thrombus formation. The lower clamp is opened and closed to allow partial blood flow to the segment. After 2-3 mins., the clips are removed. The thrombus is allowed to age in the animal for 30 mins. At this point, the optical agent is administered at a dose of 0.02 μmol/kg, via injection into the jugular vein. After 30 mins., a catheter with an optical fluorescence detector is inserted into the IVC and the thrombus visualized by detecting the fluorescence signal emitted by the fibrin-optical agent complexes on the thrombus. […] TNKASE™ (Tenecteplase) is a commercially approved tissue plasminogen activator (tPA) produced by recombinant DNA technology and sold by Genetech. The drug is administered intravenously at a dose of 30-50 mg, depending on patient weight.

B1: Tissue plasminogen activator (protein, UniProt P00750 36-562, looked up)
Tissue-type plasminogen …: SYQVICRDEKTQMIYQQHQSWLRPVLRSNRVEYCWCNSGRAQCHSVPVKSCSEPRCFNGGTCQQALYFSDFVCQCPEGFAGKCCEIDTRATCYEDQGISYRGTWSTAESGAECTNWNSSALAQKPYSGRRPDAIRLGLGNHNYCRNPDRDSKPWCYVFKAGKYSSEFCSTPACSEGNSDCYFGNGSAYRGTHSLTESGASCLPWNSMILIGKVYTAQNPSAQALGLGKHNYCRNPDGDAKPWCHVLKNRRLTWEYCDVPSCSTCGLRQYSQPQFRIKGGLFADIASHPWQAAIFAKHRRSPGERFLCGGILISSCWILSAAHCFQERFPPHHLTVILGRTYRVVPGEEEQKFEVEKYIVHKEFDDDTYDNDIALLQLKSDSSRCAQESSVVRTVCLPPADLQLPDWTECELSGYGKHEALSPFYSERLKEAHVRLYPSSRCTSQHLLNRTVTDNMLCAGDTRSGGPQANLHDACQGDSGGPLVCLNDGRMTLVGIISWGLGCGQKDVPGVYTKVTNYLDWIRDNMRP
notes: thrombolytic
For B1, the “Optical fluorescence signal of fibrin-optical agent complexes on thrombus (clot dissolution and lysis)” value was “optical fluorescence signal decreases”.
